Test results published in US12458818B2, “Anti-trophoblast cell surface antigen 2 (TROP2) antibodies and antibody drug conjugates comprising same” (CSPC MEGALITH BIOPHARMACEUTICAL CO., LTD., priority 2019, dated 2025).
“And” between values parts separate entries of the source, which are not always exact repeats. Identical values can stand only once.

Assays:
Format in all cases: in vivo, mouse
[1] = test system: xenografted MDA-MB-468 human breast adenocarcinoma tumors; experiment: MDA-MB-468 xenograft efficacy in female nude mice (Example 4)
Experimental: The anti-tumor activity of DP002-HC4LC5-ADC was evaluated as a single agent in female nude mice bearing xenografted MDA-MB-468 human breast adenocarcinoma tumors.
(§1) Each mouse was inoculated with 5×10^6 MDA-MB-468 tumor cells (in 0.1 mL, 1:1 with Matrigel) at the right flank by subcutaneous administration under sterile conditions. When the tumors reached a volume of ˜150 mm^3, mice were randomized into one of 7 treatment groups (6 mice per group), as outlined in Table 12, and treatments began. All doses of DP002-HC4LC5-ADC were administered by intravenous injection via tail vein injection.
(§2) Tumor size and animal body weight were measured twice per week. Clinical signs were recorded daily. Tumors were measured using a caliper in two dimensions (i.e., length (a) and width (b)), and tumor volumes were estimated from measurements of the two diameters of the individual tumors as follows: Tumor Volume (mm^3)=(a×b^2)/2.
(§3) Average tumor growth curves for each treatment group were plotted with the observation time on the X-axis, and corresponding tumor volume (geometric mean) on the Y-axis. A two-tailed t-test was used to analyze the statistical significance of any differences between the treatment groups and the control group. Tumor Growth Inhibition (TGI) was calculated after each tumor volume measurement according to the formula: % TGI=(TVcn−TVtn)/TVcn×100, where TVtn and TVcn are the mean tumor Volume of treated and control groups, respectively. Body weight change (CBW %) was calculated after each body weight measurement according to the formula: CBW %=(BWn−BW0)/BW0×100, where BWn is the body weight at day n and BW0 is the body weight at day 0 respectively.

[2] = Body weight and tolerability in xenografted nude mice (Example 4)
Experimental: as §1, §2, §3

[3] = Side effects in xenografted NOD/SCID mice (Example 3); settings: 1 mg/kg or 4 mg/kg intravenous, single dose on Day 0
Experimental: The efficacies of two anti-TROP2-MMAE antibody drug conjugates, DP002-HC1LC5-ADC (DAR ˜2) and DP002-HC4LC5-ADC (DAR ˜1.6-2.3), in inhibiting tumor growth in mice bearing human MDA-MB-468 breast adenocarcinoma tumor xenografts were tested. DP002-HC1LC5-ADC comprises an anti-TROP antibody that comprises HC 1 (SEQ ID NO: 52) and LC5 (SEQ ID NO: 62); DP002-HC4LC5-ADC comprises an anti-TROP antibody that comprises HC 4 (SEQ ID NO: 44) and LC5 (SEQ ID NO: 62). Briefly, 48 NOD/SCID mice (female, 6-8 weeks of age) were implanted with 0.1 ml MDA-MB-468 cells (lx 10^7 cell/ml). When the tumors sizes reached above 181 mm^3 (34 days after tumor inoculation), the mice were sorted randomly into 7 groups (6 mice/group) and treated according to the schedule provided in Table 10 below: […]

[4] = 2 mg/kg IV once on Day 0, n = 6 unless specified
[5] = 4 mg/kg IV once on Day 0, n = 6 unless specified
[6] = 4 mg/kg IV once on Day 0, outlier animal excluded
[7] = 2 mg/kg IV Day 0 + 1 mg/kg IV Days 7, 14

B1: DP002-HC4LC5-ADC: anti-TROP2-MMAE antibody drug conjugate (DAR ~1.6-2.3) of antibody with HC4 and LC5 (SEQ ID NO: 62) (conjugate)
VH: EVQLVQSGAEVKKPGESLKISCKGSGYTFTDYSINWVRQMPGKGLEWMGVISTYYGDASYNQKFKGQVTISADKSISTAYLQWSSLKASDTAMYYCARYGDGYNQFDYWGQGTLVTVSS
light: DIQMTQSPSSLSASVGDRVTITCRVSESVDSYGNNFMHWYQQKPGKAPKLLIYRASNLESGVPSRFSGSGSGTDFTFTISSLQPEDIATYYCQQSYEDPYTFGGGTKLEIKRTVAAPSVFIFPPSDEQLKSGTASVVCLLNNFYPREAKVQWKVDNALQSGNSQESVTEQDSKDSTYSLSSTLTLSKADYEKHKVYACEVTHQGLSSPVTKSFNRGEC
modifications: MMAE conjugate
Number of mice demonstrating full tumor regression at Week 8 following first dose [1, 4]: 2 | Number of mice demonstrating full tumor regression at Week 9 following first dose [1, 4]: 2 | Number of mice demonstrating full tumor regression at Week 10 following first dose [1, 4]: 2 | Number of mice demonstrating full tumor regression at Week 11 following first dose [1, 4]: 2/6 and 2 | Number of mice demonstrating full tumor regression at Week 12 following first dose [1, 4]: 1 (n = 5) | % of mice with tumor regression at the end of the study ([1]; 4 mg/kg IV as a single dose on Day 0): 66% | % TGI Day 70 ([1]; 4 mg/kg IV once on Day 0): 78.49% | Tumor Volume (mm^3, Mean ± SEM) Day 70 ([1]; 4 mg/kg IV once on Day 0): 293.26 mm^3 and 293.26 ± 288.40** mm^3 | Tumor Weight (g, Mean ± SEM) Day 84 ([1]; 4 mg/kg IV once on Day 0): 0.346 ± 0.341 g | Number of mice demonstrating full tumor regression at Week 4 following first dose [1, 5]: 4 | Number of mice demonstrating full tumor regression at Week 5 following first dose [1, 5]: 4 | Number of mice demonstrating full tumor regression at Week 6 following first dose [1, 5]: 4 | Number of mice demonstrating full tumor regression at Week 7 following first dose [1, 5]: 4 | Number of mice demonstrating full tumor regression at Week 8 following first dose [1, 5]: 4 | Number of mice demonstrating full tumor regression at Week 9 following first dose [1, 5]: 4 | Number of mice demonstrating full tumor regression at Week 10 following first dose [1, 5]: 4 | Number of mice demonstrating full tumor regression at Week 11 following first dose [1, 5]: 4/6 and 4 | Number of mice demonstrating full tumor regression at Week 12 following first dose [1, 5]: 4 | TGI on Day 70, excluding the outlier [1, 6]: 99.64% | average tumor size on Day 70, excluding the outlier [1, 6]: 4.89 mm^3 | BWC (%) Day 70 (body weight change vs Day 0) ([2]; 1 mg/kg IV Days 0, 7, 14, 21): 8.95% | Body Weight (g, Mean ± SEM) Day 70 ([2]; 1 mg/kg IV Days 0, 7, 14, 21): 21.70 ± 0.30 g | Body Weight (g, Mean ± SEM) Day 84 ([2]; 1 mg/kg IV Days 0, 7, 14, 21): 21.24 ± 0.26 g | Drug-related Death ([2]; 1 mg/kg IV Days 0, 7, 14, 21): 0 | average body weight increase (%) on Day 84 compared to Day 0 ([2]; 1 mg/kg IV Days 0, 7, 14, 21): 6.66% | average body weight increase on Day 70 compared to Day 0 ([2]; 1 mg/kg IV Days 0, 7, 14, 21): 1.76 g | average body weight increase on Day 84 compared to Day 0 ([2]; 1 mg/kg IV Days 0, 7, 14, 21): 1.30 g | BWC (%) Day 70 (body weight change vs Day 0) ([2]; 1 mg/kg IV once on Day 0): 15.09% | Body Weight (g, Mean ± SEM) Day 70 ([2]; 1 mg/kg IV once on Day 0): 22.01 ± 0.50 g | Body Weight (g, Mean ± SEM) Day 84 ([2]; 1 mg/kg IV once on Day 0): 22.06 ± 0.64 g | Drug-related Death ([2]; 1 mg/kg IV once on Day 0): 0 | average body weight increase (%) on Day 84 compared to Day 0 ([2]; 1 mg/kg IV once on Day 0): 12.37% | average body weight increase on Day 70 compared to Day 0 ([2]; 1 mg/kg IV once on Day 0): 2.87 g | average body weight increase on Day 84 compared to Day 0 ([2]; 1 mg/kg IV once on Day 0): 2.92 g | BWC (%) Day 70 (body weight change vs Day 0) [2, 7]: 8.89% | Body Weight (g, Mean ± SEM) Day 70 [2, 7]: 21.18 ± 0.49 g | Body Weight (g, Mean ± SEM) Day 84 [2, 7]: 21.31 ± 0.46 g | Drug-related Death [2, 7]: 0 | average body weight increase (%) on Day 84 compared to Day 0 [2, 7]: 10.24% | average body weight increase on Day 70 compared to Day 0 [2, 7]: 1.72 g | average body weight increase on Day 84 compared to Day 0 [2, 7]: 1.85 g | BWC (%) Day 70 (body weight change vs Day 0) ([2]; 2 mg/kg IV once on Day 0): 11.00% | Body Weight (g, Mean ± SEM) Day 70 ([2]; 2 mg/kg IV once on Day 0): 21.63 ± 0.39 g | Body Weight (g, Mean ± SEM) Day 84 ([2]; 2 mg/kg IV once on Day 0): 21.75 ± 0.55 g | Drug-related Death ([2]; 2 mg/kg IV once on Day 0): 0 | average body weight increase (%) on Day 84 compared to Day 0 ([2]; 2 mg/kg IV once on Day 0): 10.84% | average body weight increase on Day 70 compared to Day 0 ([2]; 2 mg/kg IV once on Day 0): 2.14 g | average body weight increase on Day 84 compared to Day 0 ([2]; 2 mg/kg IV once on Day 0): 2.26 g | BWC (%) Day 70 (body weight change vs Day 0) ([2]; 4 mg/kg IV once on Day 0): 10.87% | Body Weight (g, Mean ± SEM) Day 70 ([2]; 4 mg/kg IV once on Day 0): 21.72 ± 0.44 g | Body Weight (g, Mean ± SEM) Day 84 ([2]; 4 mg/kg IV once on Day 0): 20.96 ± 0.55 g | Drug-related Death ([2]; 4 mg/kg IV once on Day 0): 0 | average body weight increase (%) on Day 84 compared to Day 0 ([2]; 4 mg/kg IV once on Day 0): 6.99% | average body weight increase on Day 70 compared to Day 0 ([2]; 4 mg/kg IV once on Day 0): 2.13 g | average body weight increase on Day 84 compared to Day 0 ([2]; 4 mg/kg IV once on Day 0): 1.37 g | tolerability in mice ([2]; maximum cumulative dose of 4 mg/kg IV (single or split doses)): well tolerated | side effects based on changes in body weight, survival and gross observations [3]: No obvious side effects
